Key:
[1] = target: T1, RAG1 nonamer binding domain (NBD) (UniProt P15919 389-456); assay: EMSA; RAG EMSA: 22.5 mM MOPS-KOH pH 7.0, 20% DMSO, 2.2 mM DTT, 50 mM K-glutamate, 2% glycerol, 100 ng/ml BSA, 2 h, 25 C; NBD EMSA as in earlier work; BLI: SAX sensors, NBD 0.36-2.22 nM, 1:1 fit, buffer not stated; details: protein: recombinant, tags: His (pET28a, Ni-NTA), chain copies: 2, T/G mismatch
T1 sequence: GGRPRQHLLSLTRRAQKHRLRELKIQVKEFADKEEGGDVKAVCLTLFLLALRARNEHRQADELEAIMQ

[2] = target: T1, RAG1 nonamer binding domain (NBD); assay: BLI; RAG EMSA: 22.5 mM MOPS-KOH pH 7.0, 20% DMSO, 2.2 mM DTT, 50 mM K-glutamate, 2% glycerol, 100 ng/ml BSA, 2 h, 25 C; NBD EMSA as in earlier work; BLI: SAX sensors, NBD 0.36-2.22 nM, 1:1 fit, buffer not stated; details: protein: recombinant, tags: His (pET28a, Ni-NTA), chain copies: 2, biotin (BLI)

B1: MTCIII (NM90/NM91) (dsDNA)
DNA 1: TCACGCCAATGGCAGTGCCAGGTGTTCAGGGAGCTCTTGCGTTCAAACCACGA
DNA 2: TCGTGGTTTGAACGCAAGAGCTCCCTGAACACCTGGCGCTGCCATTGGCGTGA
- binding result ([1]; label: 5'-32P on NM90): binds

B2: KI (AP66/AP67) (dsDNA)
DNA 1: GAAAAAAGTGGCTCCCTGCCCAAGTATCCCTGTAAAACAAAAACCAAAAG
DNA 2: CTTTTGGTTTTTGTTTTACAGGGATACTTGGGCGGGGAGCCACTTTTTTC
- Kd ([2]; label: 5'-32P on AP66 (EMSA), T/G mismatch): 0.36 nM

B3: 12RSS (AKN1/AKN2) (dsDNA)
DNA 1: GATCAGCTGATAGCTACCACAGTGCTACAGACTGGAACAAAAACCCTGCT
DNA 2: TAGCAGGGTTTTTGTTCCAGTCTGTAGCACTGTGGTAGCTATCAGCTGAT
- Kd ([2]; label: 5'-32P on AKN1 (EMSA)): 0.7 nM

B4: MTCI (NM50/NM51) (dsDNA)
DNA 1: TTCAGGGAGCTCTTGTGTTCAAACCACGAAGAAGACGCAGTTTAATCTCA
DNA 2: TGAGATTAAACTGCGTCTTCTTCGTGGTTTGAACGCAAGAGCTCCCTGAA
- binding result ([1]; label: 5'-32P on NM50): binds

B5: FI (HK5/HK6) (dsDNA)
DNA 1: GGCCCTGCTTGACTGTGTCACAACCCCATCCAGTGGCCCTGAACTTGG
DNA 2: CCAAGTTCAGGGCCACTGGATGGGGTTGTGACGCAGTCAAGCAGGGCC
- Kd ([2]; label: 5'-32P on HK5 (EMSA), T/G mismatch): 0.69 nM

B6: MTCIV (NM92/NM93) (dsDNA)
DNA 1: GGAGGGGCTTCCCCTTGTTCACGCCAATGGCAGCGCCAGGTGTTCAGGGAGCTCTTGCGTTCAAACCACGA
DNA 2: TCGTGGTTTGAACGCAAGAGCTCCCTGAACACCTGGCGCTGCCATTGGCGTGAACGAGGGGAAGCCCCTCC
- binding result ([1]; label: 5'-32P on NM92): binds

B7: MTCII (NM88/NM89) (dsDNA)
DNA 1: TGCCATTGGCGTGAATGAGGGGAAGCCCCTCCTGACAGCTGGATGGTAGGACAAAGCCCTCTA
DNA 2: TAGAGGGCTTTGTCCTACCATCCAGCTGTCAGGAGGGGCTTCCCCTCGTTCACGCCAATGGCA
- binding result ([1]; label: 5'-32P on NM88): binds
